Laboratory results published in patent US9096832B2, “Differentiation of human embryonic stem cells” (LifeScan, Inc., priority 2007, dated 2015).

How the values were obtained:
[1] = tested on: H9P55 cells; assay: Definitive endoderm on human fibronectin or […] (FACS, real-time PCR); type: cell-based; settings: fibronectin vs MATRIGEL coated plates
Description: H9P55 cells were grown and differentiated on human fibronectin or regular growth factor […]™ (BD Biosciences). 1 ml of DMEM/F12 (Invitrogen/GIBCO) containing 1 ug/ml of human fibronectin (R&D systems, MN) was added to each well of 6 well tissue culture treated dish. Alternatively, regular growth factor […]™ was diluted 1:10 in DMEM/F12 and 1 ml of diluted […]™ was added to each well of 6 well tissue culture treated dish. Cells were passed with collagenase. […] Real-time PCR results (FIG. 39) confirm that formation of definitive endoderm was equivalent on fibronectin and […]™ coated plates.

[2] = tested on: H9P53 embryonic stem cells; assay: Definitive endoderm on […]: combination of Wnt-3a, GSK-3B inhibitor, BMP-4; type: cell-based, human; settings: 25 ng/ml BMP-4 added to the DE protocol
Source text: Results are expressed as fold increase over untreated cells. […] Results are expressed as fold increase over untreated cells.

[3] = tested on: H9 cells; assay: Definitive endoderm after treatment with Wnt inhibitor DKK-1 (real-time PCR); type: cell-based, human; settings: 100 ng/ml DKK1 with 20 ng/ml Wnt3a and 100 ng/ml activin A
Description: To determine if the addition of Wnt-3a was causing the increase in differentiation, an inhibitor of Wnt-3 signaling was added to the cultures. […] H9 cells were cultured on plates coated with Growth Factor Reduced […] at a 1:30 dilution. The plates were coated with […] for 1 hr at room temperature.
At day 5, the cultures were analyzed by real time PCR for SOX-17, SOX-7, Alpha-fetal protein (AFP), CXCR4, Brychyury (Bry), gooscecoid (GSC), HNF-3 beta, GATA4, hTERT and Oct4. AFP and SOX-7 are regarded as visceral endoderm markers while GATA4, HNF-3beta and SOX-17 represent definite endoderm markers and GSC, Bry, and CXCR4 represent markers of primitive streak. hTERT and Oct-4 are markers for self renewal and pluripotency respectively.

[4] = tested on: H1P55 ES cells; assay: Definitive endoderm on […]: role of Wnt1 (real-time PCR); type: cell-based, human; settings: 20 ng/ml Wnt1 in the presence of 100 ng/ml AA
Description: The following combinations of WNT1+AA were tested:
a) 20 ng/ml of WNT1+100 ng/ml AA in 0.5% FBS+DM-F12 for days 1-2 followed by 2% FBS+DM-F12+100 ng/ml AA for day three, b) 20 ng/ml of WNT1+100 ng/ml AA in 0.5% FBS+DM-F12 for days 1-2 followed by 2% FBS+DM-F12+100 ng/ml AA for days 3-5, c) 10 ng/ml of WNT1+100 ng/ml AA in 0.5% FBS+DM-F12 for days 1-2 followed by 2% FBS+DMF12+100 ng/ml AA for day three, d) 10 ng/ml of WNT1+100 ng/ml AA in 0.5% FBS+DM-F12 for days 1-2 followed by 2% FBS+DM-F12+100 ng/ml AA for days 3-5, e) 20 ng/ml of WNT1+100 ng/ml AA in 0.5% FBS+DM-F12 for days 1-2 followed by 2% FBS+DM-F12+100 ng/ml AA+20 ng/ml of WNT1 for day three, f) 20 ng/ml of WNT1+100 ng/ml AA in 0.5% FBS+DM-F12 for days 1-2 followed by 2% FBS+DM-F12+100 ng/ml AA+20 ng/ml of WNT1 for days 3-5.

## fibronectin
[1]
  formation of definitive endoderm (real-time PCR): equivalent

B1: BMP-4: BMP-4 (Catalog#314-BP-010, R&D Systems, MN) (protein, UniProt P12644 293-408, looked up)
Bone morphogenetic protein 4: SPKHHSQRARKKNKNCRRHSLYVDFSDVGWNDWIVAPPGYQAFYCHGDCPFPLADHLNSTNHAIVQTLVNSVNSSIPKACCVPTELSAISMLYLDEYDKVVLKNYQEMVVEGCGCR
[2]
  mesoderm marker BRY: induce formation of mesoderm marker BRY

B2: DKK1: Wnt Inhibitor DKK-1 (Dikkopf-1) (protein, UniProt O94907 32-266, looked up)
Dickkopf-related protein 1: TLNSVLNSNAIKNLPPPLGGAAGHPGSAVSAAPGILYPGGNKYQTIDNYQPYPCAEDEECGTDEYCASPTRGGDAGVQICLACRKRRKRCMRHAMCCPGNYCKNGICVSSDQNHFRGEIEETITESFGNDHSTLDGYSRRTTLSSKMYHTKGQEGSVCLRSSDCASGLCCARHFWSKICKPVLKEGQVCTKHRRKGSHGLEIFQRCYCGEGLSCRIQKDHHQASNSSRLHTCQRH
[3]
  expression level of differentiation markers (CXCR4, GATA4, HNF-3beta, SOX17, goosecoid): dramatically decrease to levels similar to that of untreated cells

B3: Wnt1: WNT-1 (PeproTech, NJ, Catalogue#120-17) (protein, UniProt P04628 28-370, looked up)
Proto-oncogene Wnt-1: ANSSGRWWGIVNVASSTNLLTDSKSLQLVLEPSLQLLSRKQRRLIRQNPGILHSVSGGLQSAVRECKWQFRNRRWNCPTAPGPHLFGKIVNRGCRETAFIFAITSAGVTHSVARSCSEGSIESCTCDYRRRGPGGPDWHWGGCSDNIDFGRLFGREFVDSGEKGRDLRFLMNLHNNEAGRTTVFSEMRQECKCHGMSGSCTVRTCWMRLPTLRAVGDVLRDRFDGASRVLYGNRGSNRASRAELLRLEPEDPAHKPPSPHDLVYFEKSPNFCTYSGRLGTAGTAGRACNSSSPALDGCELLCCGRGHRTRTQRVTERCNCTFHWCCHVSCRNCTHTRVLHECL
[4]
  definitive endoderm markers (Bry, CXCR4, GSC, SOX17, HNF-3B, and GATA-4): significant up regulation
